A word on the Kd: it is the free concentration of one partner at which half of the binding sites on the other are occupied at equilibrium, for simple one-to-one binding.

For the experiment, the target named is T1, Recombinant NT antigen (N-terminal pro-brain natriuretic peptide, NT-proBNP) (human, UniProt P16860 27-102).
T1 construct: domain: N-terminal pro-brain natriuretic peptide (NT-proBNP); also called recombinant NT protein; N-terminal pro-B-type natriuretic peptide
T1 sequence (looked up): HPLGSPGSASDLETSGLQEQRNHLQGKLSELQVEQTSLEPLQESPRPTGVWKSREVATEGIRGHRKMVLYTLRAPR
Nature of the experiment: indirect ELISA, KD calculated from half-max OD at 4 coating concentrations. The method, boiled down:
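Plates coated overnight at 4 °C with recombinant NT antigen at 3, 1.5, 0.75 or 0.375 μg/ml, blocked with 20% BSA. Antibody, 2-fold dilutions from 1000 to 0.977 ng/ml, was incubated 30 min at 37 °C, then detected with HRP anti-IgG, OD450/630. KD was derived from half-max OD across coating levels.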

B1: Mutation 1-40 (antibody, V domains shown)
VH: QVRLQESGPSQVKPAQTLSLTCAISGFSLTTYYLDWVRHTPGKPPEWLAQMTKDGNAVHQPTVRSRLSITRDTSKSQVFLKLTGVTTEDTAVYYCVRGVIDWGPGLLVTVSS
VL: QAVLTQPSSVSRSLGQTVSITCSGSSDNVGFGDYLNWFQLIPGSAPKTLIFGAYSRLRGVPDRFSGSRSGNTATLTINSLQAEDEADYYCGSPNSRNYVFGSGTRLTVLS
As for B1, the Kd is 3.47 nM.

B2: Mutation 1-41 (antibody, V domains shown)
VH: QVRLQESGPSQVKPAQTLSLTCAISGFSVTTYYIDWVRHTPGKPPEWLAQMTKDGNAVHNPTVRSRLSITRDTSKSQVFLKLTGVTTEDTAVYYCVRGIIDWGPGLLVTVSS
VL: QAVLTQPSSVSRSLGQTVSITCSGSSDNVGFGDYINWFQLIPGSAPKTLIFGAYSRVRGVPDRFSGSRSGNTATLTINSLQAEDEADYYCGSGNSRNYVFGSGTRLTVLS
With B2, the Kd was 2.82 nM.

B3: Mutation 1-44 (antibody, V domains shown)
VH: QVRLQESGPSQVKPAQTLSLTCAISGFSVTTYYVDWVRHTPGKPPEWLAQMTKDGNAVHNPTLRSRLSITRDTSKSQVFLKLTGVTTEDTAVYYCVRGLIDWGPGLLVTVSS
VL: QAVLTQPSSVSRSLGQTVSITCSGSSDNVGFGDYVNWFQLIPGSAPKTLIFGASSRVRGVPDRFSGSRSGNTATLTINSLQAEDEADYYCGSANSRNYVFGSGTRLTVLS
For the molecule B3, the dissociation constant (Kd) was 1.26 nM.

B4: Mutation 1-50 (antibody, V domains shown)
VH: QVRLQESGPSQVKPAQTLSLTCAISGFSLTTYYVDWVRHTPGKPPEWLAQMTKDGNAVHQPTLRSRLSITRDTSKSQVFLKLTGVTTEDTAVYYCVRGLIDWGPGLLVTVSS
VL: QAVLTQPSSVSRSLGQTVSITCSGSSDQVGFGDYINWFQLIPGSAPKTLIFGATSRVRGVPDRFSGSRSGNTATLTINSLQAEDEADYYCGSANSRGGYVFGSGTRLTVLS
As for B4, the dissociation constant Kd is 2.16 nM.

B5: Mutation 1-48 (antibody, V domains shown)
VH: QVRLQESGPSQVKPAQTLSLTCAISGFSLTTYYIDWVRHTPGKPPEWLAQMTKDGNAVHQPTIRSRLSITRDTSKSQVFLKLTGVTTEDTAVYYCVRGIIDWGPGLLVTVSS
VL: QAVLTQPSSVSRSLGQTVSITCSGSSDQVGFGDYVNWFQLIPGSAPKTLIFGATSRIRGVPDRFSGSRSGNTATLTINSLQAEDEADYYCGSPNSRGGYVFGSGTRLTVLS
In the case of B5, the equilibrium dissociation constant (Kd) was 2.02 nM.

B6: Mutation 1-46 (antibody, V domains shown)
VH: QVRLQESGPSQVKPAQTLSLTCAISGFSITTYYLDWVRHTPGKPPEWLAQMTKDGNAVHNPTIRSRLSITRDTSKSQVFLKLTGVTTEDTAVYYCVRGVIDWGPGLLVTVSS
VL: QAVLTQPSSVSRSLGQTVSITCSGSSDQVGFGDYLNWFQLIPGSAPKTLIFGASSRLRGVPDRFSGSRSGNTATLTINSLQAEDEADYYCGSPNSRGGYVFGSGTRLTVLS
Regarding B6, the Kd was 3.49 nM.

B7: Mutation 1-35 (antibody)
heavy: QVRLQESGPSQVKPAQTLSLTCAISGFSVTTYYVDWVRHTPGKPPEWLAQMTKDGNAVHQPTIRSRLSITRDTSKSQVFLKLTGVTTEDTAVYYCVRGVIDFGPGLLVTVSSASTTPPKVYPLTSCCGDTSSSIVTLGCLVSSYMPEPVTVTWNSGALTSGVHTFPAILQSSGLYSLSSVVTVPASTSGAQTFICNVAHPASSTKVDKRVEPGCPDPCKHCRCPPPELPGGPSVFIFPPKPKDTLTISGTPEVTCVVVDVGQDDPEVQFSWFVDNVEVRTARTKPREEQFNSTFRVVSALPIQHQDWTGGKEFKCKVHNEGLPAPIVRTISRTKGQAREPQVYVLAPPQEELSKSTLSVTCLVTGFYPDYIAVEWQKNGQPESEDKYGTTTSQLDADGSYFLYSRLRVDKNSWQEGDTYACVVMHEALHNHYTQKSISKPPGK
light: QAVLTQPSSVSRSLGQTVSITCSGSSDQVGFGDYVNWFQLIPGSAPKTLIFGAYSRVRGVPDRFSGSRSGNTATLTINSLQAEDEADYYCGSPNSRGGYVFGSGTRLTVLSQPKSAPSVTLFPPSKEELDTNKATVVCLISDFYPGSVNVVWKADGSTINQNVKTTQASKQSNSKYAASSYLTLTGSEWKSKSSYTCEVTHEGSTVTKTVKPSECS
As for B7, the Kd is 1.51 nM.

B8: Mutation 1-43 (antibody)
heavy: QVRLQESGPSQVKPAQTLSLTCAISGFSVTTYYLDWVRHTPGKPPEWLAQMTKDGNAVHQPTVRSRLSITRDTSKSQVFLKLTGVTTEDTAVYYCVRGIIDFGPGLLVTVSSASTTPPKVYPLTSCCGDTSSSIVTLGCLVSSYMPEPVTVTWNSGALTSGVHTFPAILQSSGLYSLSSVVTVPASTSGAQTFICNVAHPASSTKVDKRVEPGCPDPCKHCRCPPPELPGGPSVFIFPPKPKDTLTISGTPEVTCVVVDVGQDDPEVQFSWFVDNVEVRTARTKPREEQFNSTFRVVSALPIQHQDWTGGKEFKCKVHNEGLPAPIVRTISRTKGQAREPQVYVLAPPQEELSKSTLSVTCLVTGFYPDYIAVEWQKNGQPESEDKYGTTTSQLDADGSYFLYSRLRVDKNSWQEGDTYACVVMHEALHNHYTQKSISKPPGK
light: QAVLTQPSSVSRSLGQTVSITCSGSSDNVGFGDYLNWFQLIPGSAPKTLIFGASSRLRGVPDRFSGSRSGNTATLTINSLQAEDEADYYCGSANSRGGYVFGSGTRLTVLSQPKSAPSVTLFPPSKEELDTNKATVVCLISDFYPGSVNVVWKADGSTINQNVKTTQASKQSNSKYAASSYLTLTGSEWKSKSSYTCEVTHEGSTVTKTVKPSECS
B8: the Kd was 2.93 nM.

B9: Mutation 1-45 (antibody)
heavy: QVRLQESGPSQVKPAQTLSLTCAISGFSITTYYIDWVRHTPGKPPEWLAQMTKDGNAVHQPTLRSRLSITRDTSKSQVFLKLTGVTTEDTAVYYCVRGLIDFGPGLLVTVSSASTTPPKVYPLTSCCGDTSSSIVTLGCLVSSYMPEPVTVTWNSGALTSGVHTFPAILQSSGLYSLSSVVTVPASTSGAQTFICNVAHPASSTKVDKRVEPGCPDPCKHCRCPPPELPGGPSVFIFPPKPKDTLTISGTPEVTCVVVDVGQDDPEVQFSWFVDNVEVRTARTKPREEQFNSTFRVVSALPIQHQDWTGGKEFKCKVHNEGLPAPIVRTISRTKGQAREPQVYVLAPPQEELSKSTLSVTCLVTGFYPDYIAVEWQKNGQPESEDKYGTTTSQLDADGSYFLYSRLRVDKNSWQEGDTYACVVMHEALHNHYTQKSISKPPGK
light: QAVLTQPSSVSRSLGQTVSITCSGSSDQVGFGDYINWFQLIPGSAPKTLIFGASSRIRGVPDRFSGSRSGNTATLTINSLQAEDEADYYCGSPNSRGGYVFGSGTRLTVLSQPKSAPSVTLFPPSKEELDTNKATVVCLISDFYPGSVNVVWKADGSTINQNVKTTQASKQSNSKYAASSYLTLTGSEWKSKSSYTCEVTHEGSTVTKTVKPSECS
For B9, the Kd was 1.53 nM.

B10: Mutation 1-53 (antibody)
heavy: QVRLQESGPSQVKPAQTLSLTCAISGFSVTTYYVDWVRHTPGKPPEWLAQMTKDGNAVHNPTVRSRLSITRDTSKSQVFLKLTGVTTEDTAVYYCVRGVIDFGPGLLVTVSSASTTPPKVYPLTSCCGDTSSSIVTLGCLVSSYMPEPVTVTWNSGALTSGVHTFPAILQSSGLYSLSSVVTVPASTSGAQTFICNVAHPASSTKVDKRVEPGCPDPCKHCRCPPPELPGGPSVFIFPPKPKDTLTISGTPEVTCVVVDVGQDDPEVQFSWFVDNVEVRTARTKPREEQFNSTFRVVSALPIQHQDWTGGKEFKCKVHNEGLPAPIVRTISRTKGQAREPQVYVLAPPQEELSKSTLSVTCLVTGFYPDYIAVEWQKNGQPESEDKYGTTTSQLDADGSYFLYSRLRVDKNSWQEGDTYACVVMHEALHNHYTQKSISKPPGK
light: QAVLTQPSSVSRSLGQTVSITCSGSSDNVGFGDYINWFQLIPGSAPKTLIFGAYSRVRGVPDRFSGSRSGNTATLTINSLQAEDEADYYCGSGNSRNYVFGSGTRLTVLSQPKSAPSVTLFPPSKEELDTNKATVVCLISDFYPGSVNVVWKADGSTINQNVKTTQASKQSNSKYAASSYLTLTGSEWKSKSSYTCEVTHEGSTVTKTVKPSECS
In the case of B10, the Kd was 2.06 nM.

B11: Mutation 1-47 (antibody)
heavy: QVRLQESGPSQVKPAQTLSLTCAISGFSITTYYVDWVRHTPGKPPEWLAQMTKDGNAVHQPTIRSRLSITRDTSKSQVFLKLTGVTTEDTAVYYCVRGVIDFGPGLLVTVSSASTTPPKVYPLTSCCGDTSSSIVTLGCLVSSYMPEPVTVTWNSGALTSGVHTFPAILQSSGLYSLSSVVTVPASTSGAQTFICNVAHPASSTKVDKRVEPGCPDPCKHCRCPPPELPGGPSVFIFPPKPKDTLTISGTPEVTCVVVDVGQDDPEVQFSWFVDNVEVRTARTKPREEQFNSTFRVVSALPIQHQDWTGGKEFKCKVHNEGLPAPIVRTISRTKGQAREPQVYVLAPPQEELSKSTLSVTCLVTGFYPDYIAVEWQKNGQPESEDKYGTTTSQLDADGSYFLYSRLRVDKNSWQEGDTYACVVMHEALHNHYTQKSISKPPGK
light: QAVLTQPSSVSRSLGQTVSITCSGSSDQVGFGDYVNWFQLIPGSAPKTLIFGASSRVRGVPDRFSGSRSGNTATLTINSLQAEDEADYYCGSPNSRNYVFGSGTRLTVLSQPKSAPSVTLFPPSKEELDTNKATVVCLISDFYPGSVNVVWKADGSTINQNVKTTQASKQSNSKYAASSYLTLTGSEWKSKSSYTCEVTHEGSTVTKTVKPSECS
Consider B11, for which the equilibrium dissociation constant (Kd) is 2.79 nM.

Values taken from patent US20220025008A1 (FAPON BIOTECH, published 2022).
